Measured values from publication PMC6314816 (Journal of the American Chemical Society, 2018).

Experiments:
Assay in all cases: spectrophotometric NADPH oxidation, initial rates
Type in all cases: biochemical, Thermocrispum municipale
Conditions in all cases: NADPH co-substrate
CC(=O)CCc1ccccc1 = tested on: CC(=O)CCc1ccccc1
CC(=O)Cc1ccccc1 = tested on: CC(=O)Cc1ccccc1
[1] = substrate: CC(=O)Cc1ccccc1; remark: listed apart in the source
[2] = substrate: CC(=O)CCc1ccccc1; remark: listed apart in the source

With “TmCHMO (Thermocrispum municipale; F434G/L145G/L437T/T435F)” the Km (CC(=O)CCc1ccccc1) was 24 ± 4.1 µM and the kcat (CC(=O)CCc1ccccc1) was 0.16 ± 0.0028 s⁻¹.

“TmCHMO (Thermocrispum municipale; L437A/W492Y)” was tested, and the Km (CC(=O)Cc1ccccc1) was 1500 ± 460 µM and the kcat (CC(=O)Cc1ccccc1) was 0.16 ± 0.014 s⁻¹.

B1: TmCHMO (Thermocrispum municipale) (protein)
chain: MSTTQTPDLDAIVIGAGFGGIYMLHKLRNDLGLSVRVFEKGGGVGGTWYWNKYPGAKSDTEGFVYRYSFDKELLREYDWTTRYLDQPDVLAYLEHVVERYDLARDIQLNTEVTDAIFDEETELWRVTTAGGETLTARFLVTALGLLSRSNIPDIPGRDSFAGRLVHTNAWPEDLDITGKRVGVIGTGSTGTQFIVAAAKMAEQLTVFQRTPQYCVPSGNGPMDPDEVARIKQNFDSIWDQVRSSTVAFGFEESTVEAMSVSESERQRVFQQAWDKGNGFRFMFGTFCDIATNPEANAAAAAFIRSKIAEIVKDPETARKLTPTDLYAKRPLCNEGYYETYNRDNVSLVSLKETPIEEIVPQGVRTSDGVVHELDVLVFATGFDAVDGNYRAMNLRGRDGRHINEHWTEGPTSYLGVTKAGFPNMFMILGPNGPFTNLPPSIEAQVEWISDLIDKATREGLTTVEPTADAEREWTETCAEIANMTLFPKADSWIFGANIPGKRHAVMFYLGGLGNYRRQLADVADGGYRGFQLRGERAQAVA
Molecule B1 has a Km [1] of 860 ± 60 µM, a kcat [1] of 0.73 ± 0.014 s⁻¹ and a Km [2] of 12000 ± 7000 µM. It also gave a kcat [2] of 0.31 ± 0.11 s⁻¹.
